The values below come from patent US20190185537A1 (AstraZeneca / MedImmune, published 2019).

Read-outs that look alike come from different tables or passages of the source. Numbered stars: 1 amine (or outer) side, 2 acyl side, 3 side chain; on linkers, the order of the positions; unused ones are H or OH. Side chains are listed from the residue outwards. Ends that are not written are not given here. * marks the point of attachment. γGlu = O=C(O)[C@H](CCC(=O)[*:2])N[*:1]; Palmitoyl = CCCCCCCCCCCCCCCC(=O)*

The target in assay [1] is T1, human GLP-1 receptor (human, UniProt P43220 24-463). Nature of the assay: cell-based or functional assay.
Assay [2] addresses T2, human glucose-dependent insulinotropic peptide (gastric inhibitory polypeptide) receptor (human, UniProt P48546 22-466).
T2 sequence (looked up): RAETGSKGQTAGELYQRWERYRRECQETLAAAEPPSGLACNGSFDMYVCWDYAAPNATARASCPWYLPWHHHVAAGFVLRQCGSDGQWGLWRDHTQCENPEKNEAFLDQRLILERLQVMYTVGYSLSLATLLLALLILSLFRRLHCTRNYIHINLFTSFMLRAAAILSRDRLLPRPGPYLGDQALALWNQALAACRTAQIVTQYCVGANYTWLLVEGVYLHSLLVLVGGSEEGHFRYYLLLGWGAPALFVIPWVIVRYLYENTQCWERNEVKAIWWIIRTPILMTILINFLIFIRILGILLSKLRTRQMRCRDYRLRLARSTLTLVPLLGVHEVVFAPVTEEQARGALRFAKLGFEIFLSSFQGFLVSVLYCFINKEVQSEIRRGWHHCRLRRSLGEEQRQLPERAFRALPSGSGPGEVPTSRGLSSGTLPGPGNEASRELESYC
The assay is described as follows: cell-based or functional assay.

The target of assay [3] is T3, human glucagon receptor (human, UniProt P47871 26-477). The assay is described as follows: cell-based or functional assay.
T3 sequence (P47871 26-477): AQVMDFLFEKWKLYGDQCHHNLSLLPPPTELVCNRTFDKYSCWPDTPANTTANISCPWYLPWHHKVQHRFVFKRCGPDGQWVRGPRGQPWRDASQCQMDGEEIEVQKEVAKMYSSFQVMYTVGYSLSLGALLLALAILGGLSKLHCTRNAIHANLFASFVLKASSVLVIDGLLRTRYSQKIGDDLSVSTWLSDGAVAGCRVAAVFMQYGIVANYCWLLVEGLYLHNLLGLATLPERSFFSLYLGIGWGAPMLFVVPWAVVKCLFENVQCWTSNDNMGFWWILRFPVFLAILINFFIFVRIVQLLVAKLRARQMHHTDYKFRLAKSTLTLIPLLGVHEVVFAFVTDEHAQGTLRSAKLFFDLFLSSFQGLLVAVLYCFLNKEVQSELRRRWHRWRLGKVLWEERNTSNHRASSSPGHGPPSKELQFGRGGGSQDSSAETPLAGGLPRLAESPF
The target in assay [4] is T1, human GLP-1 receptor. Nature of the assay: cell-based or functional assay. The source holds these as a separate data set.
Assay [5] concerns the target mouse glucagon receptor (mouse, UniProt Q61606 27-485). The assay is described as follows: cell-based or functional assay.
The target in assay [6] is T4, mouse GLP-1 receptor (mouse, UniProt O35659 22-463).
T4 sequence (looked up): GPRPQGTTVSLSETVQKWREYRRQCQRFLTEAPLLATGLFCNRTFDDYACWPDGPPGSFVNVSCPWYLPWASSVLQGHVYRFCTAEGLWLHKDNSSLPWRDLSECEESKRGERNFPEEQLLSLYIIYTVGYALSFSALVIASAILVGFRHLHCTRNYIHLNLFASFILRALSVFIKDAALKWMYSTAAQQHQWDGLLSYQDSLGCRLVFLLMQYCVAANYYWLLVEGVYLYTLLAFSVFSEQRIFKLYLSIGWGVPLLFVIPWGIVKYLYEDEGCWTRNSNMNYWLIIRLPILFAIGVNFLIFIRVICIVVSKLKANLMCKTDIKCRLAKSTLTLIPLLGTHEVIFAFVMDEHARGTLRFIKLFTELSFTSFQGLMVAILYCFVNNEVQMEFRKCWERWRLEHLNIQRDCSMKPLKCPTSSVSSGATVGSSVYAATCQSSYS
The assay is described as follows: cell-based or functional assay.

Assay [7] has as its target T3, human glucagon receptor. The assay is described as follows: cell-based or functional assay. The source holds these as a separate data set.
Assay [8] addresses T5, rat GLP-1 receptor (rat, UniProt P32301 22-463).
T5 sequence (looked up): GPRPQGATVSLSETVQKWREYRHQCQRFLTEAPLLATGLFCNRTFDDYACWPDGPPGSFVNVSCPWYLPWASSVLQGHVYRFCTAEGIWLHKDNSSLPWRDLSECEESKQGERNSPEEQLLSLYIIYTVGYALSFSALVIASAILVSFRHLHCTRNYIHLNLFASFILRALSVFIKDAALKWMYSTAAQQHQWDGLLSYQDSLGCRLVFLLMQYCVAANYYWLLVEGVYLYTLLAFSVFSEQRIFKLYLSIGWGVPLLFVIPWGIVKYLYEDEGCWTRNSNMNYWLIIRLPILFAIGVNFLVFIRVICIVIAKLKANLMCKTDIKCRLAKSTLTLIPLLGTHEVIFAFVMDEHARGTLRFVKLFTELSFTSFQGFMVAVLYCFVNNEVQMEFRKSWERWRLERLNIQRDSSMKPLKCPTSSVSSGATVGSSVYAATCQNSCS
The assay is described as follows: cell-based or functional assay.

Assay [9] deals with rat glucagon receptor (rat, UniProt P30082 27-485). The assay is described as follows: cell-based or functional assay.
Sequence of rat glucagon receptor (P30082 27-485): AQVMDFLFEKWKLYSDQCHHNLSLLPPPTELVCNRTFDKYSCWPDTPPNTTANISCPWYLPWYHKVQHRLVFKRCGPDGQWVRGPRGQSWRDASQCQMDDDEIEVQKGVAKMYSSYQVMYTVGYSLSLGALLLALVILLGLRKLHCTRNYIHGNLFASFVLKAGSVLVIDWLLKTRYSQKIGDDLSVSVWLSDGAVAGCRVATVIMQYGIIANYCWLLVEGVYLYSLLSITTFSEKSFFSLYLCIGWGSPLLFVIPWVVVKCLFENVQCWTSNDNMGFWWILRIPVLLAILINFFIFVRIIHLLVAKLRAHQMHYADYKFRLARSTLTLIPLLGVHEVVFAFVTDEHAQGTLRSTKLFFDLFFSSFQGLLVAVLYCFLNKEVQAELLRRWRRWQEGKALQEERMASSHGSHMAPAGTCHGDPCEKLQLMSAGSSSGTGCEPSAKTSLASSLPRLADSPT
In assay [10] the target is T1, human GLP-1 receptor. The assay is described as follows: cell-based or functional assay. The source holds these as a separate data set.
Assay [11] has as its target human serum albumin (human) (UniProt P02768). The assay is described as follows: calculated from the variation in cAMP generation with the HSA concentration.
In assay [12] the target is T1, human GLP-1 receptor. The assay is described as follows: cell-based or functional assay. The source holds these as a separate data set.
The target in assay [13] is T2, human glucose-dependent insulinotropic …. The assay is described as follows: cell-based or functional assay. The source holds these as a separate data set.
The target in assay [14] is T3, human glucagon receptor. The assay is described as follows: cell-based or functional assay. The source holds these as a separate data set.
Assay [15] concerns the target T1, human GLP-1 receptor. The assay is described as follows: cell-based or functional assay. This is another data set of the same source.
For assay [16], the target named is T2, human glucose-dependent insulinotropic …. Nature of the assay: cell-based or functional assay. This is another data set of the same source.
The target in assay [17] is T3, human glucagon receptor. Nature of the assay: cell-based or functional assay. The source holds these as a separate data set.

Sequence of mouse glucagon receptor (Q61606 27-485): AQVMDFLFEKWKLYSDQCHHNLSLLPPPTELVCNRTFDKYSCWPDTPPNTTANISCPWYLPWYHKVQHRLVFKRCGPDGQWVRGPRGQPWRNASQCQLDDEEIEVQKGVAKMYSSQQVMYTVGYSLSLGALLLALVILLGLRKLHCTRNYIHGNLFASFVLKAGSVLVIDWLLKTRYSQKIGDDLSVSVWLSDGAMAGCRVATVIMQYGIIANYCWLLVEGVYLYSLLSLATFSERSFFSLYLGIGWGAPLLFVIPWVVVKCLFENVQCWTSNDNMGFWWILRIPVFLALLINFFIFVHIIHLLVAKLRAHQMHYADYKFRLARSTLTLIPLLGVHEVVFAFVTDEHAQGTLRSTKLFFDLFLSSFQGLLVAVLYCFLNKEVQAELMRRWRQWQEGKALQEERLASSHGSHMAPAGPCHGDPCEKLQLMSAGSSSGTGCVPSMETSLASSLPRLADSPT
Sequence of human serum albumin (human) (P02768 25-609 limits assumed): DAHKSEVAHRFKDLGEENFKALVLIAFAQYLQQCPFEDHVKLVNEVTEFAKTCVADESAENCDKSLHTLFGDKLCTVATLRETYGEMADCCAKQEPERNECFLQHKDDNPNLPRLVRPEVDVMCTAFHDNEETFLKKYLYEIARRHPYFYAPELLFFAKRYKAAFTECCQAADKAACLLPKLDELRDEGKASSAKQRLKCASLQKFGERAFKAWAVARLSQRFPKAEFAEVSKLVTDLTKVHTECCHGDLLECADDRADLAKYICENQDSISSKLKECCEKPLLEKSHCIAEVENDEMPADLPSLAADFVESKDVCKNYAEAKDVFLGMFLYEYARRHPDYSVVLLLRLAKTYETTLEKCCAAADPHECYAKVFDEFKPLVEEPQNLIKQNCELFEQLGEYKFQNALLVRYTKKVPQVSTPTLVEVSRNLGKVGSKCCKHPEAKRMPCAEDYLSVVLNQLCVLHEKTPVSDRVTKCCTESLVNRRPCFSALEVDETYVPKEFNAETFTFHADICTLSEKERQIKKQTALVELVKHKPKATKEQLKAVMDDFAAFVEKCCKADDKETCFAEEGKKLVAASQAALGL

B1: G730 (peptide)
peptide: HSQGTFTSDYSKK([γGlu-Palmitoyl])LDSERARDFVAWLVAGG-NH2
modifications: N-terminus assumed
SMILES: CCCCCCCCCCCCCCCC(=O)N[C@@H](CCC(=O)NCCCC[C@H](NC(=O)[C@H](CCCCN)NC(=O)[C@H](CO)NC(=O)[C@H](Cc1ccc(O)cc1)NC(=O)[C@H](CC(=O)O)NC(=O)[C@H](CO)NC(=O)[C@@H](NC(=O)[C@H](Cc1ccccc1)NC(=O)[C@@H](NC(=O)CNC(=O)[C@H](CCC(N)=O)NC(=O)[C@H](CO)NC(=O)[C@@H](N)Cc1c[nH]cn1)[C@@H](C)O)[C@@H](C)O)C(=O)N[C@@H](CC(C)C)C(=O)N[C@@H](CC(=O)O)C(=O)N[C@@H](CO)C(=O)N[C@@H](CCC(=O)O)C(=O)N[C@@H](CCCNC(=N)N)C(=O)N[C@@H](C)C(=O)N[C@@H](CCCNC(=N)N)C(=O)N[C@@H](CC(=O)O)C(=O)N[C@@H](Cc1ccccc1)C(=O)N[C@H](C(=O)N[C@@H](C)C(=O)N[C@@H](Cc1c[nH]c2ccccc12)C(=O)N[C@@H](CC(C)C)C(=O)N[C@H](C(=O)N[C@@H](C)C(=O)NCC(=O)NCC(N)=O)C(C)C)C(C)C)C(=O)O
As a reminder, the EC50 is the concentration that produces a half-maximal response. With B1, the “cAMP EC50 (assay 1)” value in assay [1] was 18 pM; in assay [2], 45000 pM; in assay [3], 6.23 pM; in assay [12], 39.5 pM; in [13], 56600 pM; in assay [14], 15 pM. Also, the “cAMP EC50 (assay 2, 4.4% human serum albumin)” value in assay [4] came to 455 pM; in assay [7] it was 402 pM. The “cAMP EC50 (assay 2, 3.2% mouse serum albumin)” value in [5] is 5460 pM; in assay [6], 1100 pM. Moreover, the results for the “cAMP EC50 (assay 2, 3.2% rat serum albumin)” value in [8] and in assay [9] were 81 pM and 45100 pM, respectively. In addition, the “EC50 at the GLP1R at 0% HSA (calculated)” value in [10] is 7 pM. Besides, the free peptide at 4.4% HSA in [11] was 0.85%.

B2: G934 (peptide)
peptide: HSQGTFTSDK([γGlu-Palmitoyl])SKYLEGQAAKEFIAWLEKGR-OH
modifications: N-terminus assumed
SMILES: CCCCCCCCCCCCCCCC(=O)N[C@@H](CCC(=O)NCCCC[C@H](NC(=O)[C@H](CC(=O)O)NC(=O)[C@H](CO)NC(=O)[C@@H](NC(=O)[C@H](Cc1ccccc1)NC(=O)[C@@H](NC(=O)CNC(=O)[C@H](CCC(N)=O)NC(=O)[C@H](CO)NC(=O)[C@@H](N)Cc1c[nH]cn1)[C@@H](C)O)[C@@H](C)O)C(=O)N[C@@H](CO)C(=O)N[C@@H](CCCCN)C(=O)N[C@@H](Cc1ccc(O)cc1)C(=O)N[C@@H](CC(C)C)C(=O)N[C@@H](CCC(=O)O)C(=O)NCC(=O)N[C@@H](CCC(N)=O)C(=O)N[C@@H](C)C(=O)N[C@@H](C)C(=O)N[C@@H](CCCCN)C(=O)N[C@@H](CCC(=O)O)C(=O)N[C@@H](Cc1ccccc1)C(=O)N[C@H](C(=O)N[C@@H](C)C(=O)N[C@@H](Cc1c[nH]c2ccccc12)C(=O)N[C@@H](CC(C)C)C(=O)N[C@@H](CCC(=O)O)C(=O)N[C@@H](CCCCN)C(=O)NCC(=O)N[C@@H](CCCNC(=N)N)C(=O)O)[C@@H](C)CC)C(=O)O
With B2, the figures for the “cAMP EC50 (assay 1)” value in assay [15], in [16] and in [17] were 18 pM, 3600 pM and 6.3 pM, respectively.

B3: G973 (peptide)
peptide: HSQGTFTSDK([γGlu-Palmitoyl])SSYLDSRSARDFVAWLEAGG-OH
modifications: N-terminus assumed
SMILES: CCCCCCCCCCCCCCCC(=O)N[C@@H](CCC(=O)NCCCC[C@H](NC(=O)[C@H](CC(=O)O)NC(=O)[C@H](CO)NC(=O)[C@@H](NC(=O)[C@H](Cc1ccccc1)NC(=O)[C@@H](NC(=O)CNC(=O)[C@H](CCC(N)=O)NC(=O)[C@H](CO)NC(=O)[C@@H](N)Cc1c[nH]cn1)[C@@H](C)O)[C@@H](C)O)C(=O)N[C@@H](CO)C(=O)N[C@@H](CO)C(=O)N[C@@H](Cc1ccc(O)cc1)C(=O)N[C@@H](CC(C)C)C(=O)N[C@@H](CC(=O)O)C(=O)N[C@@H](CO)C(=O)N[C@@H](CCCNC(=N)N)C(=O)N[C@@H](CO)C(=O)N[C@@H](C)C(=O)N[C@@H](CCCNC(=N)N)C(=O)N[C@@H](CC(=O)O)C(=O)N[C@@H](Cc1ccccc1)C(=O)N[C@H](C(=O)N[C@@H](C)C(=O)N[C@@H](Cc1c[nH]c2ccccc12)C(=O)N[C@@H](CC(C)C)C(=O)N[C@@H](CCC(=O)O)C(=O)N[C@@H](C)C(=O)NCC(=O)NCC(=O)O)C(C)C)C(=O)O
Take B3: the “cAMP EC50 (assay 1)” value in assay [15] is 12 pM; in assay [16] it was 47000 pM; in assay [17], 8.9 pM.
